Laboratory results reported in PMC11147780, “Vaccination induces broadly neutralizing antibody precursors to HIV gp41” (Nature Immunology, 2024).

Target: T1, 10E8-GT10.2 epitope scaffold (designed scaffold 10E8-GT10.2 with …, N-linked glycosylation sites added (positions not given))
T1 chain: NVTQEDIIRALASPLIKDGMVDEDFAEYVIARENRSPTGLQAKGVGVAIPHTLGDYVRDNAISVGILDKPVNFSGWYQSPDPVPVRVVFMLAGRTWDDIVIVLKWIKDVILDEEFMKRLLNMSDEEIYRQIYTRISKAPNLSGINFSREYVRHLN

Binder | Kd [µM]
NHP-10E8_MPER-GT10v55_W26-01 (antibody, V domains shown) VH: QLQLQESGPGLVKPSETLSLTCAVSGGSISSNYWSWIRQPPGKGLEWIGRISGSGGSTDYNPSLKSRVTISTDTSKNQFSLKLSSVTAADTAVYYCAGNSHYYNFWSGYYGDNSLDVWGRGVLVTVSS VL: SYDVTQPRSVSVSPGQTARITCGGDNIGSKNVHWYQQKPAQAPVLVIYYDSDRPSGIPERFSGSNSGNTATLTISGVEAGDEADYYCQVWDSSSDHRLFGGGTRLTV | 3.69
NHP-10E8_MPER-GT10v55_W21-08 (antibody, V domains shown) VH: EVQLVESGGGLVQPGGSLRLSCAASGFTFSDYYMYWVRQAPGKGLEWVGFIRSKAYGGTAEYAASVKGRFTISRDDSKSIAYLQMSSLKTEDTAVYYCTRALPYYNFWSGYYTHFDAFDFWGQGLRVTVSS VL: QAAPTQPPSVSGSPGQSVTISCTGTSSDIGYYNAVSWYQQHPGKAPKLMIYEVSKRPSGVSDRFSGSKSGNTASLTISGLQAEDEADYYCSSYAGSNTLLFGGGTRLTV | 13.2
NHP-10E8_MPER-GT10v55_W21-16 (antibody, V domains shown) VH: QVQLQESGPGLVKPSETLSLTCAVSGGSISSGYYYWSWIRQPPGKGLEWIGYITYSGSTSYNPSLKSRVTISRDTSKNQFSLKLSSVTAADTAVYYCARVGVYYNFWSGYYTNTYFDYWGQGVLVTVSS VL: QAAPTQPPSVSGSPGQSVTISCTGTSSDIGYYNAVSWYQQHPGKAPKLMIYEVSKRPSGVSDRFSGSKSGNTASLTISGLQAEDEADYYCSSYAGSNTFIFGAGTRLTV | 2.4
NHP-10E8_MPER-GT10v55_W21-06 (antibody, V domains shown) VH: EVRLVESGGGLVQPGGSLRLSCAASGFTFSDYYMSWVRQAPGKGPEWVGFIRNKANGGTAEYAASVKGRFTISRDDSKSIASLQMNSLKTEDTAVYYCAREKVYYNFWSGYLENYGLDSWGQGVVVTVSS VL: DVVMTQSPLSLPITPGQPASISCRSSQSLVYSDGKTYLNWYQQKPGQPPRRLIYQVSNRDSGVPDRFSGSGAGTDFTLKISRVEAEDVGVYYCMQGTHLPYSFGQGTKVEIK | 5.92
NHP-10E8_MPER-GT10v55_W10-10 (antibody, V domains shown) VH: EVQVVESGGGLVQPGGSLRLSCAASGFTFSDYAMDWVRQAPGKGLEWVGFIRSKDYGGTAEYAASVKGRFTISRDDSKNTAYLQMSSLKTEDTAVYYCTRDRRYYSFWSGYDRGWYFDLWGQGALVTVSS VL: DIVMTQTPLSLPVTLGEPASISCRSSQSLLNSEDGNTSLAWYLQKPGQSPQLLIYEVSNRASGVPDRFSGSGSDTDFTLKISRVEAEDVGVYYCMQPLEFPPTFGQGTKVEIK | 0.0956
NHP-10E8_MPER-GT10v55_W21-10 (antibody, V domains shown) VH: EVRLVESGGDLVQPGGSLRLSCAASGFTFSYYSMSWVRQAPGKGLEWIGFIKNKADGGTEAYAESVKGRFTISRDDSENTLYLQMNSLKTDDTAVYSCTRGRVYYNFWSGFYTGGRFDVWGPGVLVTVSS VL: DIVMTQTPLSLPVTPGEPASISCRSSQSLLDSEDGNTYLDWYLQKPGQSPQLLIYEVSNRASGVPDRFSGSGSDTDFTLKISRLEAEDVGVYYCMQGLEFPFTFGPGTKLDIK | 0.00081
NHP-10E8_MPER-GT10v55_W21-13 (antibody, V domains shown) VH: QLQLQESGPGLVKPSETLSLTCAVSGGSISGGYGWSWIRQPLGKGLEWIGHIFGSIGSTYYNPSLKSRVTISTDTSKNQFSLKLSSVTAADTAVYYCARTRSFYNFWSGYYTRHAFDFWGQGLRVTVSS VL: DIVMTQTPLSLPVTLGEPASISCRSSQSLLDSEDGNTYLEWYLQKPGQSPQLLIYEVSNRASGVPDRFSGSGSDTDFTLKISRVEAEDVGVYYCMQALEFPPTFGQGTKVEIK | 1.3
NHP-10E8_MPER-GT10v55_W26-04 (antibody, V domains shown) VH: EVQLVESGGGLVQPGGSLRLSCAASGFTFSSYGMHWVRQAPGKGLEWVAVIWYDGSKKYYADSVKDRFTISRDNSKNMLYLQMNNLKLEDTAVYYCARGGAYYNFWSGYYTLLNRFDVWGPGVLVTVSS VL: DIVMTQTPLSLPVTPGEPASISCRSSQSLLDSEDGNTYLDWYLQKPGQSPQLLIYEVSNRASGVPDRFSGSGSDTDFTLKISRVEAEDVGVYYCMQGLEFPYSFGQGTKVEIK | 5.05
NHP-10E8_MPER-GT10v55_W10-11 (antibody, V domains shown) VH: EVQLVESGGGLVQPGGSLRLSCAASGFAFSDYTMDWVRQAPGKGLEWVGFIRSRDYGGKVDYAASVKGRFTISRDDSKNTAYLHMSSLKTEDTAVYYCTRSKRHYSFWSGDYPHYGLDSWGQGVVVTVSS VL: QSVVTQPPSVSGDPGQRVTIYCTGNSSNIGGYDVYWYQQVPGTAPKLLMYENNKRPSGVSDRFSGSKSGTSASLTITGLQSEDEAEYYCETWDNSLNGRVFGGGTRLTV | 4.16
NHP-10E8_MPER-GT10v55_W10-12 (antibody, V domains shown) VH: EVHLVESGGGLVQPGGSLRLSCAASGFTFSDYAMDWVRQAPGKGLEWVGFIGSKDYGGTVEYAASVKGRFTISRDDLKNTAYLQMSRLKTEDTAVYYCTRSKTCYSFWSGYYPHYGLDSWGQGVVVTVSS VL: QSVLTQPPSVSGDPGQRVTISCTGNSSNIGGFDVYWYQLLPGTAPKLLIYENTKRPSGISDRFSGSKSGTSASLTITGLQSEDEAEYYCETWDNSLNGRLFGGGTRLTV | 0.752
NHP-10E8_MPER-GT10v55_W21-17 (antibody, V domains shown) VH: QVQLQESGPGLVKPSETLSLTCVVAGGSISDDYYWSWIRQSPGKGLEWIGYIYGSGGGTKYNPSLKNRVTISIDTSKNQFSLKLSSVTAADTAVYYCARELRYYNFWSGYYDNYYGLDSWGQGVVVTVSS VL: DIVMTQTPLSLPITPGEPASISCRSSQSLLHSTGNTYLHWYLQKPGQSPQLLIYGGSNRASGVPDRFSGSGSGTDFTLKISKVEAEDVGVYYCVQAIAFPFTFGPGTKLDIK | 0.00241
NHP-10E8_MPER-GT10v55_W21-03 (antibody, V domains shown) VH: EVHLVESGAGLVQPGGSLRLSCAASGFTFRNSWMSWVRQAPGKGLEWIARIKRKADGETTDYAASVKGRFTLSRDDSKNTVYLQMDSLKTEDTAVYYCTTDQGYYNFWSGNYDYYGLDSWGQGVVVAVSS VL: DIQMTQSPSSLSAFVGDRVTITCRASQGISTHLNWYQQKPGKAPKRLIYTSSNLETGVPSRFSGSGSGTDFTLTISSLQPEDFATYYCLQYNSDPWTFGQGTKVEIK | 8.32
NHP-10E8_MPER-GT10v55_W21-05 (antibody, V domains shown) VH: EVRLVESGGGLVQPGGSLRLSCAASGFTFSDYYMSWVRQAPGKGPEWVGFIRNKANGGTAEYAASVKGRFTISRDDSKSIASLQMNSLKTEDTAVYYCARDTYTYNFWSGYYRSNSLDVWGRGVLVTVSS VL: SYDLTQPPSVSVSPGQTARITCGGDNIGSEAVHWYQQKPPQAPVQVIYSDSERPSGIPERFSGSKSGNTATLTISGVEAGDEADYYCQVWDISSDHYIFGAGTRLTV | 2.41
NHP-10E8_MPER-GT10v55_W21-11 (antibody, V domains shown) VH: EVRLVESGGGLVQPGGSLRLSCAASGFTFSDYYMSWVRQAPGKGPEWVGFIRNKANGGTAEYAASVKGRFTISRDDSKSIASLQMNSLKTEDTAVYYCARDRGNYNFWSGYSGSDYFDYWGQGVLVTVSS VL: QSVLTQPPSVSAAPGQKVTISCSGSSSNIGRSYVSWYQQVPGTAPKLLIYDNNKRPSGVSDRFSGSKSGTSASLAITGLQTGDEADYYCGAWDSSLSAGLFGGGTRLTV | 8.11
NHP-10E8_MPER-GT10v55_W21-15 (antibody, V domains shown) VH: QLQLQESGPGLVKPSETLSLTCAVSGGSISSSNWWSWIRQPPGKGLEWIGRISGSGGSTSDNPSLKSRVTISKDTSKNQFSLKLSSVTAADTAVYYCASESFYYNFWSGYYQENSLDVWGRGVLVTVSS VL: QPVLTQPTSLSASPGASARLSCTLSSGINVGSYSIFWYQQKPGSPPRYLLYYYSDSSKHQGSGVPSRFSGSKDASANAGLLLISGLQSEDEADYYCAIWHSSAYVLFGGGTRLTV | 5.13
NHP-10E8_MPER-GT10v55_W21-07 (antibody, V domains shown) VH: EVQLVESGGGLVQPGGSLRLSCAASGFTFSDYAMDWVRQAPGKGLEWVGFIRSKAYGGTAEYAASVKGRFTISRDDSKNTAYLQMSSLKTEDTAVYYCTRAARGYNFWSGYYTGYGLDSWGQGVVVTVSS VL: EIVMTQSPATLSLSPGERATLSCRTSQSVSSYVAWYQQKPEQAPRLLIYGASSRATGIPDRFSGGGSGTDFTLTISSLEPEDFAVYYCQQYSNWPYSFGQGTKVEIK | 7.64
NHP-10E8_MPER-GT10v55_W21-14 (antibody, V domains shown) VH: QVQLQESGPGLVKPSETLSLTCAVSGGSISSGYYYWSWIRQPPGKGLEWIGYITYSGSTSYNPSLKSRVTISRDTSKNQFSLKLSSVTAADTAVYYCASAPSYYNFWSGYYHLDYFDYWGQGVLVTVSS VL: QSVLTQPPSVSGAPGQRVTISCTGSSSNIGGYYVSWYQQLPGTTPKLLIYQDNKRPSGVSDRFSGSKSGTSASLTITGLQTEDEADYYCLSYDSSLSAHGLFGGGTRLTV | 2.4
NHP-10E8_MPER-GT10v55_W21-09 (antibody, V domains shown) VH: EVRLVESGGGLVQPGGSLRLSCAASGFTFSDYYMSWVRQAPGKGPEWVGFIRNKANGGTAEYAASVKGRFTISRDDSKSIASLQMNSLKTEDTAVYYCARESPYYNFWSGYYGTNDAFDFWGQGLRVTVSS VL: QPVLTQSPSASASLGASVKLTCTLSSGHSSYAIAWHQQQQGKAPRYLMRLNSVGSHSKGDGIPDRFSGSSSGAERYLTISNLQSEDEADYYCQTWTTGIQVFGGGTRLTV | 3.32
NHP-10E8_MPER-GT10v55_W26-02 (antibody, V domains shown) VH: EVQLVESGGGLAKPGGSLRLSCAASGFTFSDYYMDWVRQAPGKGLEWVSRISNGGGSTWYADSVKGRFTISRENAKNTLYLQMNSLRAEDTAVYYCASELSYYNFWSGYGASYGLDSWGQGVVVTVSS VL: QPVLTQPTSLSASPGASARLTCTLRSGISVGSYRIFWYQQKPGSPPRYLLNYHTDSDKHQGSGVPSRFSGSKDASANAGILLISGLQSEDEADYYCMIWHNNAYIFGAGTRLTV | 3.09
NHP-10E8_MPER-GT10v55_W21-18 (antibody, V domains shown) VH: QLQLQESGPGLVKPSETLSLTCAVSGGSISSSYWSWIRQAPGKGLEWIGYIYGSGSSTNYNPSLKSRVTLSVDTSKNQLSLKLSSVTAADTAVYYCARDVKDYNFWSGYYEDGYFDYWGQGVLVTVSS VL: DIVMTQTPLSLPVTPGEPASISCRSSQSLLHSNGNTYLHWYLQKPGQSPRLLIYKVTNRESGVPDRFSGSGSGTDFTLKISRVEPEDVGVYYCMQSTKDPYSFGQGTKVEIK | 6
NHP-10E8_MPER-GT10v55_W26-07 (antibody, V domains shown) VH: QVQLQESGPGLVKPSETLSLTCAVSGGSFSSYWWGWIRQTPGKGLEWIGSIYGSSGTTEYNPSHKSRATISRDTSENQFSLKLSSVTAADTAVYYCARSGEWPYNFWGGTHNPPHWYFDLWGPGTPIIISS VL: DVVMTQSPLSLSITPGQPASISCRSSHSLIHSNGNTYLSWYQQKPGQPPRRLIYEVSKQDSGVPERFSGSGAGTDFTLKISRVEAEDVGIYYCGQGTHLPLTFGPGTKLDIK | 0.0326
